Values joined by “and” are separate entries in the source; they are usually repeats but may differ in a detail not shown here. Identical values can stand only once.
Legend:
[1] = system: peripheral B cells, T cells, NK cells, monocytes; experiment: Phase 1/1B clinical trial: circulating lymphocyte subsets in whole blood by flow cytometry; assay type: in vivo, human
Procedure: The highest line at day 10 represents 1 mg/kg, the second highest line at day 10 represents 3 mg/kg, the second lowest line at day 10 represents 6 mg/kg, and the lowest line at day 10 represents 12 mg/kg.
Whole blood was collected pre-treatment or at 0.5 hr or 24 hr after administration of CPI-006 as a single agent (left) or in combination with CPI-444 (right). The absolute number of CD19+ B cells, CD3+ T cells, CD3+CD4+ T cells, CD3+CD8+ T cells, and CD3−CD16+CD56+ NK cells were determined by flow cytometry with quantification beads.
Blood was collected pre-treatment or 0.5 hr after administration of CPI-006. The absolute number of CD19^+ B cells, as well as the percentage of B cells positive for CD73, were determined using flow cytometry.
Whole blood samples from the patients treated with a single dose (i.e., 1 mg/kg, 3 mg/kg, or 6 mg/kg) of CPI-006 monotherapy were analyzed by flow cytometry to further evaluate immunomodulatory effects. Levels of B cells (CD19+CD3−) are reported as a percent of total lymphocytes (gated based on scatter properties), as shown in FIG. 4A. CD73 expression was evaluated with a non-competing anti-CD73 antibody and is reported on B cells (CD19+CD3−) and T cells (CD19−CD3+), as shown in FIG. 4B. Purified B cells from healthy human donors were incubated with CPI-006 or human IgG1 isotype control at concentrations of 0.1 μg/mL, 1 μg/mL, and 10 μg/mL for 30 minutes.

[2] = Phase 1/1B clinical trial: adverse events, tolerability; assay type: in vivo, human
Description: The primary objectives of the study were to show safety and tolerability of the active agents, and the second objectives of the study were to identify PK/PD profiles, drug efficacy, and biomarkers. […] The adenosine gene signature was not used to select patients. The dose expansion includes treatment of non-small cell lung cancer, renal cell carcinoma, non-Hodgkin's lymphoma, and other types of cancers (e.g., bladder, prostate, pancreatic, colorectal, squamous cell cancer of the head and neck). CPI-006 was given as a one hour infusion every three weeks, and for the combination treatments 100 mg po BID of ciforadenant was administered. Biomarker assessment was conducted for the effects of CD73 expression in tumors, peripheral blood lymphocyte subsets, antibody occupancy of target, and serum cytokines.
The baseline demographics of the patients are shown in Table 2 below, and the adverse events are shown in Table 3 (where TEAE refers to treatment-related adverse events based on any grade 3 or 4 events, or 2 or more of all grades).

[3] = biological target: T1, CD73 (Homo sapiens, UniProt P21589); experiment: CD73 enzymatic activity in MDA-MB-231 xenograft model; assay type: in vivo; details: MDA-MB-231 human TNBC xenograft model; FIG. 1F
T1 construct: endogenous in cells; host or cells: Whole blood of cancer patients (CD73+ CD8 T cells)
T1 sequence (P21589 27-549): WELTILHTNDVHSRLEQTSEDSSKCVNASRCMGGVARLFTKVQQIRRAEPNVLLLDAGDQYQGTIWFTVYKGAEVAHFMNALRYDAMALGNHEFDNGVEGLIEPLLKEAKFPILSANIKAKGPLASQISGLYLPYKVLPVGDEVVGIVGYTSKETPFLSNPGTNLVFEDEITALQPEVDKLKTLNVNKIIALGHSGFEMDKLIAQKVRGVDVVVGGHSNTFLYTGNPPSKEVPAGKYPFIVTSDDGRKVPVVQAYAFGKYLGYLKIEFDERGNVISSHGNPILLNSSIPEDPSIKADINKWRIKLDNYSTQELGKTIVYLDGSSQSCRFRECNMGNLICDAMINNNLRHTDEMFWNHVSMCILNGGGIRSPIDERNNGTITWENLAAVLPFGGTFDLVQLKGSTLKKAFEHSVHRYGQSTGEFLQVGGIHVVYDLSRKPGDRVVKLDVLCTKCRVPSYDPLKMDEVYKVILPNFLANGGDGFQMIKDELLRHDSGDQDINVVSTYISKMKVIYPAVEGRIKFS
Description: (§1) FIG. 1A provides a schematic of CD73 structure. […] Each symbol represents an independent donor.

[4] = biological target: T1, CD73; experiment: CD73 catalytic activity in MDA-MB-231 cells (phosphate, Sensolyte Malachite Green); assay type: cell-based; details: 250 μM AMP, FIG. 1B
Procedure: as §1
(§2) MDA-MB-231 cells (e.g., available at ATCC® as HTB-26™) were incubated with a human IgG1 isotype control, CPI-006, CPX-016, or adenosine 5′-(α,β-methylene)diphosphate (also known as APCP, which is a small molecule inhibitor of CD73 enzymatic activity), prior to addition of 250 μM of adenosine monophosphate (AMP). Phosphate levels were measured in the cell culture supernatant using the Sensolyte Malachite Green assay kit. Peripheral blood mononuclear cells (PBMC) were isolated from healthy donors and labeled with CellTrace™ Violet (ThermoFisher Scientific) prior to culture with 1 μg/mL anti-CD3 and anti-CD28, 200 units/mL IL-2, 3 mM AMP and indicated treatments (CPI-006 at 500 nM; CPX-016 at 500 nM; human IgG1 isotype control at 890 nM). T cell proliferation was measured by Cell Trace Violet dilution and was defined by gating relative to unstimulated PBMC (FIG. 1C). IFN-gamma production was measured in cell culture supernatants by AlphaLISA (FIG. 1D). Results shown in FIGS. 1B-D illustrate that inhibition of CD73 activity has an agonistic effect on immunomodulatory activity.

[5] = system: PBMC; experiment: T cell proliferation and IFN-gamma secretion of healthy donor PBMC cultured with AMP; assay type: cell-based, human; details: CPI-006 at 500 nM, 3 mM AMP, anti-CD3 and anti-CD28, IL-2; FIGS. 1C-1D
Procedure: as §1, §2

[6] = cancer patients, monotherapy n = 12, combination n = 8

B1: CPI-006: humanized CD73 antibody, wherein the light chain is SEQ ID NO:8 and the heavy chain is SEQ ID NO:7; IgG1 Fcγ receptor-deficient (antibody, V domains shown)
VH: QVQLVQSGAEVEKPGASVKVSCKASGYTFTSYWITWVRQAPGQGLEWMGDIYPGSGNTNYNEKFKTRVTITADKSTSTAYMELSSLRSEDTAVYYCAKEGGLTTEDYALDYWGQGTLVTV
VL: EIVLTQSPATLSLSPGERATLSCRASKNVSTSGYSYMHWYQQKPGQAPRLLIYLASNLESGIPPRFSGSGYGTDFTLTINNIESEDAAYYFCQHSRELPFTFGQGTKVEIK
% Decrease of Peripheral B cells at C1D1 (0.5 h) ([1]; 3 mg/kg, patients 4-6 (Pancreatic, Pancreatic, Prostate)): 71.2% and 62.3% and 68.1% | CD73POS B cells levels over time ([1]; 1 to 12 mg/kg, repeated infusions, FIG. 7C): decrease with each infusion of CPI-006, and then partially return to a new steady state level | CD4/CD8 ratios, including CD73NEG subsets ([1]; 0.5 hours after administration, FIGS. 7A-7B): increase | number of circulating cells, all evaluated lymphocyte subsets (B, T, CD4+ T, CD8+ T, NK) ([1]; 0.5 hr post-treatment versus pre-treatment, FIG. 12): decreased | number of circulating CD73+ B cells ([1]; 0.5 hr post-treatment, FIG. 13): substantially decreased | number of circulating CD73− B cells ([1]; 0.5 hr post-treatment, FIG. 13): either unchanged or modestly decreased | number of circulating B cells ([1]; 24 hr post-treatment, FIG. 12): partial return | number of circulating cells, other cell types (T, NK) ([1]; 24 hr post-treatment, FIG. 12): returned to near baseline levels | HLA-DR expression ([1]; cancer patients receiving 6 mg/kg monotherapy, FIG. 7D): increase in HLA-DR expression, followed by a gradual decrease | B lymphocyte trafficking ([1]; clinical data, FIGS. 4A-4B): transient redistribution of B cells | CD73NEG B cells ([1]; following treatment): No significant changes | Adverse Events Number of Patients: Anemia, All Grades [2, 6]: 1 | Adverse Events Number of Patients: Anemia, Grade 3 or 4 [2, 6]: 1 | Adverse Events Number of Patients: Chills, All Grades [2, 6]: 4 | Adverse Events Number of Patients: Chills, Grade 3 or 4 [2, 6]: 0 | Adverse Events Number of Patients: Diarrhea, All Grades [2, 6]: 1 | Adverse Events Number of Patients: Diarrhea, Grade 3 or 4 [2, 6]: 0 | Adverse Events Number of Patients: Fatigue, All Grades [2, 6]: 2 | Adverse Events Number of Patients: Fatigue, Grade 3 or 4 [2, 6]: 0 | Adverse Events Number of Patients: Headache, All Grades [2, 6]: 2 | Adverse Events Number of Patients: Headache, Grade 3 or 4 [2, 6]: 0 | Adverse Events Number of Patients: Infusion-related reaction, All Grades [2, 6]: 2 | Adverse Events Number of Patients: Infusion-related reaction, Grade 3 or 4 [2, 6]: 0 | Adverse Events Number of Patients: Nausea, All Grades [2, 6]: 3 | Adverse Events Number of Patients: Nausea, Grade 3 or 4 [2, 6]: 0 | Adverse Events Number of Patients: Pruritus, All Grades [2, 6]: 2 | Adverse Events Number of Patients: Pruritus, Grade 3 or 4 [2, 6]: 0 | Adverse Events Number of Patients: Subjects with any TEAE, All Grades [2, 6]: 8 | Adverse Events Number of Patients: Subjects with any TEAE, Grade 3 or 4 [2, 6]: 1 | dose-limiting toxicity ([2]; doses of 1, 3, and 6 mg/kg): no dose-limiting toxicity | tolerability ([2]; doses of 1, 3, and 6 mg/kg): well tolerated | grade 3/4 adverse events ([2]; patients of Table 4, CPI-006 monotherapy 1, 3, 6 mg/kg): No grade 3/4 adverse events were reported | CD73 enzymatic activity in tumor xenograft [3]: blocks CD73 enzymatic activity | adenosine production (CD73 catalytic activity) [4]: blocks adenosine production | adenosine-mediated immunosuppression (T-cell proliferation, IFN-gamma secretion) [5]: relieves adenosine-mediate immunosuppression
